Molecular target: T1, androgen receptor N-terminus (AR18-500) (Rattus norvegicus, UniProt P15207)
T1 construct: receptor residues 18 through 500 (using the rat androgen receptor number scheme); expressed in transfected cells; host or cells: Saccharomyces cerevisiae EGY188
T1 sequence (P15207 18-500): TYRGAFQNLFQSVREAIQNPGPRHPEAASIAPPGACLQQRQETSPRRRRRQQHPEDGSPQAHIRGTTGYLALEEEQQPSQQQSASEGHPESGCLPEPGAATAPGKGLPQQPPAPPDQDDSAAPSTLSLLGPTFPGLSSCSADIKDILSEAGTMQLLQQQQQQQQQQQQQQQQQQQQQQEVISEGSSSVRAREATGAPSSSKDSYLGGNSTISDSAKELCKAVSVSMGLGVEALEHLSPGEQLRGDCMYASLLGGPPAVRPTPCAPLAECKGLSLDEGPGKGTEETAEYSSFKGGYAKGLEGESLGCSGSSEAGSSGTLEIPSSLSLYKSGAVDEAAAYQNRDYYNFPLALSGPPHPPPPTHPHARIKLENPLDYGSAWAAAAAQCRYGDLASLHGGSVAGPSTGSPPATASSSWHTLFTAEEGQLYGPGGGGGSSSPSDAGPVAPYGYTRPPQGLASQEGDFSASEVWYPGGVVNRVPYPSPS
Assay: Modified yeast two-hybrid, quantitative liquid beta-galactosidase assay
Type: binding
Conditions: LexA-ART fusions vs AR18-500; twelve hour incubation in galactose-containing media
Protocol: The modified yeast two hybrid assay is described in Hittelman et al., 1999. EGY188 was transformed by the lithium acetate method with (i) pJG4-5:AR18-500, (ii) pEG202:LNCaP cell cDNA library and (iii) pJK103, a β-galactosidase reporter gene with a single LexA operator. Potential interacting proteins were selected by plating the cDNA library expressing transformants onto galactose plates lacking leucine and containing X-gal.
Yeast were grown in selective liquid media containing 2% glucose for approximately 12 hours, pelleted, washed once with sterile H2O, normalized according to cell number and resuspended to an optical density (OD600) of 0.15 in 2% galactose/1% raffinose. β-galactosidase assays were performed 12 hours later as described previously (Garabedian et al., 1992).
Out of approximately one million library transformants, eight clones were isolated that interact with the androgen receptor N-terminus. There protein factors were termed ARTs, for Androgen Receptor Trapped, by the present inventors. The eight ART clones were sequenced and were subjected to a database search using the BLAST program. A quantitative liquid beta-galactosidase assay was used to measure the relative strength of interaction between the androgen receptor N-terminus and the ARTs using the yeast two-hybrid system. The levels of expression of the ARTs in yeast were similar, as determined by immunoblotting using an antibody to the LexA DNA-binding domain that is common to all of the ARTs.
ARTs expressed as fusion proteins with the LexA DNA binding domain were analyzed for their ability to interact with AR18-500. The relative strength of interaction was determined by a quantitative liquid beta-galactosidase assay after a twelve hour incubation in galactose-containing media at 30EC. The LexA vector alone gives 1 unit of activity.

B1: ART-5: Androgen Receptor Trapped protein, SEQ ID NO:4, unknown function, represented in EST database (protein)
chain: MHNPDGSASPTADPGSELQTLGQAARRPPPPRAGHDAPRRTRPSARKPLSCFSRRPMPTREPPKTRGSRGHLHTHPPGPGPPLQGLAPRGLKTSAPRPPCQPQPGPHKAKTKKIVFEDELLSQALLGAKKPIGAIPKGHKPRPHPVPDYELKYPPVSSERERSRYVAVFQDQYGEFLELQHEVGCAQAKLRQLEALLSSLPPPQSQKEAQVAARVWREFEMKRMDPGFLDKQARCHYLKGKLRHLKTQIQKFDDQGDSEGSVYF
modifications: Human
- relative strength of interaction with androgen receptor N-terminus: strongest

Source: patent US20080081903A1, “METHOD FOR SCREENING TRANSCRIPTIONAL COREGULATORY PROTEINS OF TRANSCRIPTION FACTORS, AND ANDROGEN RECEPTOR TRANSCRIPTIONAL COREGULATORY PROTEINS AS TARGETS FOR ANDROGEN RECEPTOR-DEPENDENT DISEASES” (NEW YORK UNIVERSITY, priority 2001, published 2008)
